The target in the data set is hnRNP A2 (recombinant) (Homo sapiens, UniProt P22626-2 1-341). The experiment in a line: UV-cross-linking EMSA, competition. Background: A gel shift assay detects complexes by their altered migration in electrophoresis.

B1: A2RE11 (ssRNA)
RNA: GCCAAGGAGCC
Consider B1, for which the binding result is “binds”.

The record behind these values is PMC548348.
